Some results are limits rather than exact numbers.

For this data set, the system named is Saccharomyces cerevisiae. The experiment in a line: transcriptional activation domain activity (GFP:mCherry ratio, weighted mean of sorted bins, harmonized to initial dataset scale) (arbitrary fluorescence ratio units); higher = stronger transcriptional activation. To be noted: beta-estradiol 1 µM; induction time 4 h. The method, then:
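53-aa protein tiles (fungal proteins plus yeast TF control tiles) fused C-terminally to a DBD-estrogen-binding domain-mCherry synthetic TF, integrated in S. cerevisiae (URA3 locus) with a GFP reporter. Cells were induced with 1 uM beta-estradiol for 4 h at 30 C, FACS-sorted into 8 bins by GFP:mCherry ratio and barcodes sequenced. Activity is the read-weighted mean bin fluorescence (GFP:mCherry), averaged over barcodes (median 12); tiles under 50 reads were discarded. New active-learning values were harmonized by linear fit onto the scale of the initial (Hummel et al.) dataset. The assay saturates at low and high signal.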
Take “KKPAAKAKAGPSKANGEAAANGKGEEKEQEKEEAPKEKFKAAKLADPAAPGSK”: the “transcriptional activation domain activity” value worked out at 31200.

In the case of “FELHIPYHFVVVNTGKKLFQIWGLGKIDFARDFPFLQGARGSLTRTIIVILRN”, the “transcriptional activation domain activity” value stood at 52300. Then “EAANGDDAEPAAEQNGADIQTAAASPAESTKKDNKKKDKKRSREEEGANGAAA”, with 39500.

As for “TNLYDHAVTPEILLEQLAYVDNFIPSLDNEFSNVDWNVNTTHNNANNNGADTF”, the “transcriptional activation domain activity” value stood at 47300. Then “NNIISNRKQASKEKRKIPRHIQTIDEKLINDSNYLAFLKFDDLENEKFHSSAS”, with 56600. In the case of “MCCLLVVLVALSGVGDFFFFSLLLLLLLLERGGVFFLFWLFFFYLFILFFHRG”, the “transcriptional activation domain activity” value is 57000. Next, “DAKSGTSGGLFGSAAPASSTAPNSSGAATAGASSTTTTAPAGGLFGAKPAAAS”: less than 6570; “SRPSTAPKPAPNPSPETTVTSISTPSEKRKRGRKPKAKPVEVPVSQTSGADSL”: 20600; “ILLANLECFPKEKIWDKTIVGGRCLDPIQVKLIWVYNAAVNLGLDVVILILPQ”: 32200.

For “MIPSVMIRTSDYSLVIILSLCLVLKMMLICIVCSIESYLTNLDKWLFCLILCK”, the “transcriptional activation domain activity” value is 51300. For the sequence “MFIFFLILLFYYYFYSTILFITYTLFSITQLSIFTLIPFLYYIIHYVTLLICS”, the “transcriptional activation domain activity” value was found to be 41100.

As to “QMLNPLEKILLSLASIVLSSRVSRNLFVLYALGLHFIVLFTLYSVVYVFIFCS”, the “transcriptional activation domain activity” value was 37500.

Turning to “SRLHARIEYEESSEQFVLAVLGRNGAWVDGVWSGSGSRVPLSSRSQIQIASRV”, the “transcriptional activation domain activity” value came out at 52800. In the case of “KKGRRGRRRNRRGRKEGESEKGRKGGKGKGRKGEEQRRVRIKKGSRGTGEGEK”, the “transcriptional activation domain activity” value was less than 6570. Consider “HPLSWAKFALVMGMLSSLGVLVISTYSVSLSILQFARPLQYIPRFLWTIATLV”, for which the “transcriptional activation domain activity” value was 34400.

Take “RAAVSAPVVPTKAAVAPEEPPVKRKRGRPRLTSPRYRPKAAPAKAPAPTPKVV”: the “transcriptional activation domain activity” value amounted to 50000. Next, “HESDDFWRENASKLNEKDYEQLKLVPLHMFAPDWPLNCLLLRILVRLLSTEDP”: 30700; “FAFLAPFFCFLFYMSMGFFRLFLFCFLGFGTFVVFNLILVPAFSLYLNHVYLL”: 68100. Then “VLYGRLRVKAQLLECALWNISAWLSLPDVERKSYTMLFTTLGGLYDMTCRIYL”, with 53000; and “MLDLLVVHFPISNGLIEDNDLKVLVKAAVGVVLRKDMSLNRRLYAWLLGAQEG”, with 44600; and “MVKGRGRGGQVLFLFLFLLLFFLFLFLSLFLFILFFLALFFWTFFVLFCFVWG”, with 66200. Next, “KVGFVLIFLFALLVFTSIICSPIYVFSVPYSSICISLQVHRCCLFYGAVIWFV”: 31300; “AINFWFFLTVYYGFYNLVGLLWITKIFNMYSLNWWPPQLGFPPTFTFFSCFPL”: 51500. As for “AASKKERQSESHASSKRARSSKNGRGADADSSDEEEAGRSSSRKSRRTSTGDR”, the “transcriptional activation domain activity” value worked out at 30200. For the sequence “MAWAIQGRLFSFNCSCSHFIFWPLFFFFSLPWRAWSSIGNNSRFSRLFFFFFL”, the “transcriptional activation domain activity” value is 60900. For the sequence “RNEGEARKGEGGRMRVVGIRQRAEGKTRRRGRKRERGREGSERRGEGGGREQG”, the “transcriptional activation domain activity” value was less than 6570. Next, “RLLIVFAWMCRLGCWIEMDHEARLVLLKFLATFKANSNNVISYKLDQYYLTGL”: 80100.

Turning to “GSRRPRKDKSHKKKDRSSGDGTEKERKHRDRGDKGDRERAKSRERGEKGKRDR”, the “transcriptional activation domain activity” value amounted to 20500. For the sequence “SFHAFFFLYLPCCLFFYFCIVLVLVLVGYWCLVFFFIVFGSFPPPLLSKYLHL”, the “transcriptional activation domain activity” value worked out at 46200. Next, “MFSFSFPLFLSPLPISLFFLPFALSYSLLSSHLMADICLSSTRWLSSIFFSFF”: 36100.

The record behind these values is the supplement of paper PMC12636428.
